Experimental data: PMC6391877

Columns and labels:
[1] = target: intact human C-C chemokine receptor type 5 (human) (UniProt P51681); experiment: SEC
[2] = target: 4 domain CD4 (residues 1-388) with a C-terminal twin strep tag (human) (UniProt P01730); experiment: SEC

Sequence of UniProt P51681 (P51681 whole entry, the tested form may be a part): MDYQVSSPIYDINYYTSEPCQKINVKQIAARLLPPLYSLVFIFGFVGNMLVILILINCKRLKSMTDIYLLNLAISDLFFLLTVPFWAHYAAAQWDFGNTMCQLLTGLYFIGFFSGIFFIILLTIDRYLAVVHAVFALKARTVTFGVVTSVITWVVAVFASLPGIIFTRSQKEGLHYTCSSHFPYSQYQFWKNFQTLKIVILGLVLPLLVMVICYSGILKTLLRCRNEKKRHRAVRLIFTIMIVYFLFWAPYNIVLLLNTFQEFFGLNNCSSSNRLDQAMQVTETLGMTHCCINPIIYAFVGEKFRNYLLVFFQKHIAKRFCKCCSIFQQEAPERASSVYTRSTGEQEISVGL

| stoichiometry N [1] | Substance | stoichiometry N [2] |
| --- | --- | --- |
| 1 | preformed CD4-gp120 complex (from UniProt P01730 26-388) | – |
| – | HIV-1 gp120 (residues 1-507) from the isolate 92BR020 with a C-terminal 6xhistidine tag (natural protein) | 1 |
